Measurements taken from patent US7291492B2, “Histone deacetylase 9” (The Institute of Cancer Research, priority 2001, dated 2007).

Tested on: histone H4 peptide
Test: in-vitro histone deacetylase assay with anti-FLAG immunoprecipitated HDAC, [3H]acetyl-labelled histone H4 peptide
Type: biochemical
Settings: FLAG-tagged HDAC from 293T cells, FIG. 5A
Procedure: A. HDAC9 deacetylates histone H4 peptide. 293T cells were transfected with FLAG-tagged HDAC. Whole cell lysates were produced and the HDACs precipitated with anti-FLAG agarose. The beads were assayed for their ability to deacetylate a [^3H]acetyl-labelled peptide corresponding to the N-Terminus of histone H4. Free acetate was extracted and measured by scintillation counting.
Higher activities of HDAC9 have been detected towards peptide substrates derived from histone H3 than from histone H4 (FIGS. 7A and B).

B1: HDAC9: wild-type histone deacetylase 9, a 1069 amino acid polypeptide, class II histone deacetylase (protein)
chain: MHSMISSVDVKSEVPVGLEPISPLDLRTDLRMMMPVVDPVVREKQLQQELLLIQQQQQIQKQLLIAEFQKQHENLTRQHQAQLQEHIKLQQELLAIKQQQELLEKEQKLEQQRQEQEVERHRREQQLPPLRGKDRGRERAVASTEVKQKLQEFLLSKSATKDTPTNGKNHSVSRHPKLWYTAAHHTSLDQSSPPLSGTSPSYKYTLPGAQDAKDDFPLRKTASEPNLKVRSRLKQKVAERRSSPLLRRKDGNVVTSFKKRMFEVTESSVSSSSPGSGPSSPNNGPTGSVTENETSVLPPTPHAEQMVSQQRILIHEDSMNLLSLYTSPSLPNITLGLPAVPSQLNASNSLKEKQKCETQTLRQGVPLPGQYGGSIPASSSHPHVTLEGKPPNSSHQALLQHLLLKEQMRQQKLLVAGGVPLHPQSPLATKERISPGIRGTHKLPRHRPLNRTQSAPLPQSTLAQLVIQQQHQQFLEKQKQYQQQIHMNKLLSKSIEQLKQPGSHLEEAEEELQGDQAMQEDRAPSSGNSTRSDSSACVDDTLGQVGAVKVKEEPVDSDEDAQIQEMESGEQAAFMQQPFLEPTHTRALSVRQAPLAAVGMDGLEKHRLVSRTHSSPAASVLPHPAMDRPLQPGSATGIAYDPLMLKHQCVCGNSTTHPEHAGRIQSIWSRLQETGLLNKCERIQGRKASLEEIQLVHSEHHSLLYGTNPLDGQKLDPRILLGDDSQKFFSSLPCGGLGVDSDTIWNELRSSGAARMAVGCVIELASKVASGELKNGFAVVRPPGHHAEESTAMGFCFFNSVAITAKYLRDQLNISKILIVDLDVHHGNGTQQAFYADPSILYISLHRYDEGNFFPGSGAPNEVGTGLGEGYNINIAWTGGLDPPMGDVEYLEAFRTIVKPVAKEFDPDMVLVSAGFDALEGHTPPLGGYKVTAKCFGHLTKQLMTLADGRVVLALEGGHDLTAICDASEACVNALLGNELEPLAEDILHQSPNMNAVISLQKIIEIQSKYWKSVRMVAVPRGCALAGAQLQEETETVSALASLTVDVEQPFAQEDSRTAGEPMEEEPAL
modifications: left off: a dimerising Fc or GST
notes: wild-type histone deacetylase 9, a 1069 amino acid polypeptide, class II histone deacetylase
histone deacetylase activity relative to HDAC1: about 25% | histone deacetylase activity relative to HDACs 4 and 5: ~50%
